The target in assay [1] is T1, human Trop-2 on the surface of cells (CHO/Trop-2 cells; BxPC-3 cells; NCI-N87 cells) (human, UniProt P09758 27-323).
T1 construct: whole, on cells; One molecule for all cell lines; the cell line is named under assay or readout; also called Trop-2 on the surface of CHO cells; recombinant human Trop-2 protein on the surface of CHO cells
T1 sequence (looked up): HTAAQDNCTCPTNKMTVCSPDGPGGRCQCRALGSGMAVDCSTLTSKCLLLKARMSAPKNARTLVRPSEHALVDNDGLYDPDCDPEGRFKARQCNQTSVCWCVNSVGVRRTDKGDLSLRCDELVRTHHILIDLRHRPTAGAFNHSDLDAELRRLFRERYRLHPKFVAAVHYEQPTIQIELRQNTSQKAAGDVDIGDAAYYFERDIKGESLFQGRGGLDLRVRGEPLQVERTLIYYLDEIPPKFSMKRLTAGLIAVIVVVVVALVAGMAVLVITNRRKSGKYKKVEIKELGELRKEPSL
The experiment in a line: FACS, CHO/Trop-2 cells. As for the experimental part:
Suspensions of CHO cells recombinantly expressing human Trop-2 (CHO/Trop-2 cells) were incubated with chimeric antibodies ch3-11, ch4-3, ch17-1, ch11-4, and ch23-12 (dilutions at concentrations of 30 μg/ml and 10 μg/ml, and serial dilutions of 9 concentrations obtained through 3-fold serially diluting a solution with an initial concentration of 5 μg/ml, 11 concentrations in total) for 30 min at 37° C. Controls as follows were set: (1) Positive Control (PC): control antibody Sacituzumab; (2) Negative Control (NC): IgG1 isotype control antibody NC-IgG1. The cells were washed 3 times with PBS, and 1:100 dilution of goat anti-human IgG-FITC (Cat.: F9512, Sigma) was added into the cell which then were incubated for 30 min. Then the cells were washed 3 times with PBS again, and the Mean Fluorescence Intensity (MFI) of the cells was measured by a flow cytometer (model B49007AD, SNAW31211, BECKMAN COULTER) to detect binding ability of the chimeric antibodies to human Trop-2 on the surface of CHO cells.

Assay [2] concerns the target T1, human Trop-2 on the surface of cells …. The experiment in a line: cell-based or functional assay.
Assay [3] deals with T2, recombinant human Trop-2-his protein (ACCESSION NO.: NP_002344.2, AA 1-274) (human, UniProt P09758 27-274).
T2 construct: range 27-274; also called recombinant human Trop-2 protein; recombinant human Trop-2 extracellular domain; not shown: his tag
T2 sequence (looked up): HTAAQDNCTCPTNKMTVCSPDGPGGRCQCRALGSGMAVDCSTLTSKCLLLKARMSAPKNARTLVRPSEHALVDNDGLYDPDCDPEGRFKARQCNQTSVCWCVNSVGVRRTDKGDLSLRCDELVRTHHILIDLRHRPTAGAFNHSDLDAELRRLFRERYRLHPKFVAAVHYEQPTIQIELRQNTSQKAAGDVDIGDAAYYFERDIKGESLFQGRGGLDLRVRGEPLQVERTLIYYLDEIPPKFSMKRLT
The experiment in a line: BLI, antibody on AHC sensor, Trop-2-his 60 nM. Put shortly:
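Humanized antibodies at 4 μg/ml in PBS captured via Fc on anti-human IgG Fc (AHC) biosensors for 120 s; 60 nM Trop-2-his (AA 1-274) as analyte, 100 s association, 300 s dissociation. Blank-subtracted responses fitted to 1:1 Langmuir model for kinetic constants.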

Assay [4] has as its target T2, recombinant human Trop-2-his protein …. The assay can be described thus: BLI, antibody on AHC sensor, Trop-2-his 60 nM. This is another data set of the same source.
The target is the same in assay [5]. The experiment in a line: BLI, antibody on AHC sensor, Trop-2-his 60 nM. The method, boiled down:
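Octet BLI: humanized antibodies at 4 μg/ml in PBS captured 120 s on anti-human IgG Fc (AHC) biosensors, then exposed to 60 nM Trop-2-his (AA 1-274) for 100 s association and 300 s dissociation. Blank-subtracted data fitted to 1:1 Langmuir model for kinetic constants.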
The source holds these as a separate data set.

Assay [6] has the same target. The assay can be described thus: BLI, naked antibody on AHC sensor, Trop-2-his 60 nM, 300 s binding. The protocol: Affinities of the antibodies were determined by an assay including capturing Fc fragments of the antibodies with anti-human IgG Fc capture (AHC) biosensors using Octet QKe system instrument from Fortebio.
For the assay, SN38-labeled antibodies prepared as described above: h23-12-SN38, ch4-3-SN38, ch11-4-SN38, and positive control antibody Sacituzumab-SN38, as well as naked antibodies h23-12, ch4-3, ch11-4, and positive control antibody Sacituzumab were diluted to 4 μg/ml with PBS and allowed to flow through the surface of an AHC biosensor (Cat.: 18-0015, PALL) for 120 s. Recombinant human Trop-2-his protein (ACCESSION NO.: NP_002344.2, AA 1-274) was used as a mobile phase, and its concentration was 60 nM. The binding time was 300 s and the dissociation time was 300 s. When the assay was finished, data from which the response value of blank control had been deducted were fitted to a 1:1 Langmuir binding model using software, and then kinetic constants for antigen-antibody binding were calculated.

B1: Sacituzumab (antibody, human IgG1, kappa, V domains shown)
VH: QVQLQQSGSELKKPGASVKVSCKASGYTFTNYGMNWVKQAPGQGLKWMGWINTYTGEPTYTDDFKGRFAFSLDTSVSTAYLQISSLKADDTAVYFCARGGFGSSYWYFDVWGQGSLVTVSS
VL: DIQLTQSPSSLSASVGDRVSITCKASQDVSIAVAWYQQKPGKAPKLLIYSASYRYTGVPDRFSGSGSGTDFTLTISSLQPEDFAVYYCQQHYITPLTFGAGTKVEIKR
notes: expressed in HEK293; also called control antibody Sacituzumab; Saituzumab
Regarding B1, the concentration for a half-maximal effect (EC50) in assay [1] is 2.32 nM. The “Internalization percentage (%), 1 h, BxPC-3 cells, FACS” value in assay [2] is 17.2%. Besides, the “Internalization percentage (%), 3 h, BxPC-3 cells, FACS” value in assay [2] is 21.8%. Moreover, the “Internalization percentage (%), 5 h, BxPC-3 cells, FACS” value in assay [2] was determined as 20.4%. In addition, the Kd in assay [3] was 0.723 nM; in assay [4], 0.784 nM; in assay [5], 0.723 nM; in assay [6], 0.583 nM.

B2: h23-12-25 (antibody, human IgG1, kappa, V domains shown)
VH: QVQLVQSGAEVKKPGASVKVSCKASGYTFTSYWMHWVRQAPGQGLEWMGEITPSDNYGSYNQKFKGRVTITRDTSTSTAYMELSSLRSEDTAVYYCARGHGNYVSFDYWGQGTLVTVSS
VL: DIQMTQSPSSLSASVGDRVTITCRASQDISNYLNWYQQKPGKAPKLLIYYTSRLESGVPSRFSGSGSGTDFTLTISSLQPEDFATYFCQQGYTLPPYTFGQGTKLEIKR
notes: also called h32-12
Turning to B2, the dissociation constant Kd stood at 0.502 nM in assay [5] and 0.507 nM in assay [6].

For the origin of these results see US20240092930A1 (MABWELL SHANGHAI BIOSCIENCE, published 2024).
